± gives the uncertainty stated by the source.
Test: self-splicing fitness, log relative to wild type (ln ratio); higher = more splicing; Tetrahymena group I intron in knt gene, E. coli kanamycin selection, DiMSum; sequences stand for … in CUCUCU…GGAGGGAAAAGUUAUCAGGCAUGCACCUGGUAGCUAGUCUUUAAACCAAUAGAUUGCAUCGGUUUAAAAGGCAAGACCGUCAAAUUGCGGGAAAGGGGUCAACAGCCGUUCAGUACCAAGUCUCAGGGGAAACUUUGAGAUGGCCUUGCAAAGGGUAUGGUAAUAAGCUGACGGACAUGGUCCUAACCACGCAGCCAAGUCCUAAGUCAACAGAUCUUCUGUUGAUAUGGAUGCAGUUCACAGACUAAAUGUCGGUCGGGGAAGAUGUAUUCUUCUCAUAAGAUAUAGUCGGACCUCUCCUUAAUGGGAGCUAGCGGAUGAAGUGAUGCAACACUGGAGCCGCUGGGAACUAAUUUGUAUGCGAAAGUAUAUUGAUUAGUUUUGGAGUACUCGUGGUCG
Procedure, shortened: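 Colonies from six replicate transformations of E. coli BL21(DE3) were pooled and amplicon-sequenced on an Illumina HiSeq 2500. The library placed an intron with all eight P1ex-region nucleotides randomised inside the knt kanamycin-resistance gene on pET-22b(+), and cells grew overnight at 37°C or 30°C on LB agar with or without 25 μg/mL kanamycin (plus 100 μg/mL carbenicillin, 50 μM IPTG, 0.2% rhamnose). Fitness is the DiMSum error-weighted combination of wild-type-normalised replicate fold changes, kanamycin versus none.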

Row | Sequence | self-splicing fitness (ln) (30 °C) | self-splicing fitness (ln) (37 °C)
1 | GGCCAGCAAUAUUACGUUUU | -1.31 ± 0.065 | -1.22 ± 0.079
2 | UGGUAGCAAUAUUACGUCAC | – | -1.37 ± 0.45
3 | AAUGAGCAAUAUUACGUAAA | -3.26 ± 0.18 | -1.1 ± 0.18
4 | UGUCAGCAAUAUUACGGAGU | -3.6 ± 0.17 | -1.96 ± 0.15
5 | CAAGAGCAAUAUUACGUCGU | -3.72 ± 0.23 | -2.66 ± 0.25
6 | GCUCAGCAAUAUUACGACCA | -0.232 ± 0.18 | -0.532 ± 0.15
7 | GGACAGCAAUAUUACGUAGG | -0.254 ± 0.053 | -0.517 ± 0.063
8 | CUUAAGCAAUAUUACGUCUU | -3.64 ± 0.24 | -3.11 ± 0.25
9 | CGGUAGCAAUAUUACGAUGG | -0.774 ± 0.1 | 0.646 ± 0.14
10 | AUUAAGCAAUAUUACGGCUA | -0.106 ± 0.11 | -0.122 ± 0.11
11 | AAUGAGCAAUAUUACGGUUA | -3.02 ± 0.22 | -1.86 ± 0.15
12 | CCCAAGCAAUAUUACGAACA | -3.02 ± 0.27 | -3.04 ± 0.26
13 | UGGUAGCAAUAUUACGGGGA | -2.58 ± 0.26 | -2.18 ± 0.18
14 | UGGCAGCAAUAUUACGAUCA | -0.413 ± 0.14 | -0.198 ± 0.12
15 | CCGCAGCAAUAUUACGCGCA | -3.08 ± 0.27 | -1.41 ± 0.16
16 | UCGCAGCAAUAUUACGUAGA | -0.804 ± 0.065 | -0.0374 ± 0.079
17 | GAGGAGCAAUAUUACGUAAU | -3.87 ± 0.22 | -2.54 ± 0.19
18 | GAUCAGCAAUAUUACGUUAC | -2.16 ± 0.097 | -1.19 ± 0.11
19 | UGAUAGCAAUAUUACGUAAA | -3.07 ± 0.16 | -1.64 ± 0.14
20 | UUACAGCAAUAUUACGGGCA | -1.01 ± 0.1 | -0.657 ± 0.11

Row | Sequence | self-splicing fitness (ln) (30 °C) | self-splicing fitness (ln) (37 °C)
21 | UGAUAGCAAUAUUACGGUGU | -3.45 ± 0.18 | -3.09 ± 0.24
22 | CCUCAGCAAUAUUACGCUCG | -2.8 ± 0.16 | -2.96 ± 0.24
23 | UCUUAGCAAUAUUACGCGUU | -3.83 ± 0.34 | -1.75 ± 0.2
24 | GGCUAGCAAUAUUACGACCA | -1.49 ± 0.3 | -1.43 ± 0.31
25 | ACACAGCAAUAUUACGACUA | -1.22 ± 0.091 | -0.346 ± 0.084
26 | GAUCAGCAAUAUUACGGGUG | -0.356 ± 0.081 | -0.245 ± 0.094
27 | UGCCAGCAAUAUUACGUUAC | -2.48 ± 0.23 | -3.38 ± 0.31
28 | CGAUAGCAAUAUUACGGAGA | -3.98 ± 0.42 | -2.4 ± 0.29
29 | GUGGAGCAAUAUUACGGGAC | -2.17 ± 0.29 | –
30 | GGUGAGCAAUAUUACGGACA | -1.48 ± 0.17 | -0.688 ± 0.16
31 | UCCAAGCAAUAUUACGAAUG | -4.26 ± 0.21 | -2.95 ± 0.2
32 | AUCUAGCAAUAUUACGGUCG | -2.96 ± 0.22 | 0.125 ± 0.18
33 | CCACAGCAAUAUUACGCCGG | -3.23 ± 0.18 | -2.2 ± 0.19
34 | GUCCAGCAAUAUUACGAAGA | -0.611 ± 0.19 | -1.51 ± 0.24
35 | GGUAAGCAAUAUUACGAACG | -0.0623 ± 0.11 | -0.0489 ± 0.12
36 | CACUAGCAAUAUUACGUAUC | -3.43 ± 0.25 | -2.27 ± 0.19
37 | CUCCAGCAAUAUUACGUAGG | -2.92 ± 0.11 | -1.9 ± 0.15
38 | UUAUAGCAAUAUUACGGAGU | -3.38 ± 0.32 | -2.15 ± 0.3
39 | AGUCAGCAAUAUUACGGUGG | -3.01 ± 0.26 | -1.79 ± 0.24
40 | CUGGAGCAAUAUUACGUCGA | -3.15 ± 0.29 | -2.82 ± 0.34

Row | Sequence | self-splicing fitness (ln) (30 °C) | self-splicing fitness (ln) (37 °C)
41 | UGGAAGCAAUAUUACGUACA | -0.926 ± 0.1 | 0.227 ± 0.11
42 | ACGAAGCAAUAUUACGUGAG | -0.888 ± 0.056 | -1.14 ± 0.087
43 | UACGAGCAAUAUUACGCAUU | -3.48 ± 0.43 | -2.09 ± 0.46
44 | GUAAAGCAAUAUUACGCAUC | -1.36 ± 0.11 | -0.97 ± 0.15
45 | UUUAAGCAAUAUUACGGUCA | -1.15 ± 0.12 | -0.266 ± 0.1
46 | GGAAAGCAAUAUUACGAUAU | -0.885 ± 0.076 | -0.58 ± 0.1
47 | CAACAGCAAUAUUACGGCUG | -1.27 ± 0.077 | -1.24 ± 0.11
48 | ACUCAGCAAUAUUACGUCCC | -0.969 ± 0.13 | -0.71 ± 0.16
49 | GGAAAGCAAUAUUACGACAG | -2.98 ± 0.14 | -2.17 ± 0.22
50 | UUCAAGCAAUAUUACGCUAA | -1.35 ± 0.2 | -0.551 ± 0.19
51 | GAGUAGCAAUAUUACGCAAU | – | -2.34 ± 0.31
52 | CCAGAGCAAUAUUACGCAAG | -2.15 ± 0.19 | -2.33 ± 0.29
53 | UGCGAGCAAUAUUACGUGGU | -3.4 ± 0.18 | -2.63 ± 0.21
54 | CUCGAGCAAUAUUACGCUGG | -4.31 ± 0.24 | -3.22 ± 0.22
55 | UUGCAGCAAUAUUACGUCUG | -3.23 ± 0.16 | -2.32 ± 0.18
56 | UUACAGCAAUAUUACGUCUA | -0.0634 ± 0.086 | -0.0325 ± 0.079
57 | GGCCAGCAAUAUUACGCCUC | -0.497 ± 0.13 | -0.06 ± 0.15
58 | CAAGAGCAAUAUUACGUAGU | -3.51 ± 0.2 | -1.78 ± 0.19
59 | GCACAGCAAUAUUACGUCCU | -0.289 ± 0.072 | 0.244 ± 0.094
60 | AAUUAGCAAUAUUACGUCCC | -0.346 ± 0.41 | -0.0336 ± 0.49
